Test results from US20220402983A1 (Janssen / Centocor, published 2022).
*1 amine or outer side, *2 acyl side, *3 side chain or, on linkers, in order; H or OH if unused. Bridges are numbered along the chain shown (N, C = ends). Where no end group is shown, it is not given here. [ ]: non-standard residue; d: D form. The star is where a group is joined. Phe(4-(2-(Boc)aminoethoxy)) = phenylalanine with 4-(2-(Boc-amino)ethoxy) on the ring, CC(C)(C)OC(=O)NCCOc1ccc(C[C@H](N[*:1])C(=O)[*:2])cc1; Phe(3,5-F2) = N[C@@H](Cc1cc(F)cc(F)c1)C(=O)O; 2Nal = N[C@@H](Cc1ccc2ccccc2c1)C(=O)O; AEF = NCCOc1ccc(C[C@H](N)C(=O)O)cc1; αMeY = C[C@](N)(Cc1ccc(O)cc1)C(=O)O; Cyclopropanecarbonyl = O=C(C1CC1)*; αMeF = C[C@](N)(Cc1ccccc1)C(=O)O; αMeE = C[C@](N)(CCC(=O)O)C(=O)O; Pen = CC(C)(S)[C@H](N)C(=O)O; αMeK = C[C@](N)(CCCCN)C(=O)O; αMeC = C[C@](N)(CS)C(=O)O; Ac6c = NC1(C(=O)O)CCCCC1; Thp = NC1(C(=O)O)CCOCC1; Abu = CC[C@H](N)C(=O)O; Hexanoyl = CCCCCC(=O)*; Aib = CC(C)(N)C(=O)O; Propionyl = CCC(=O)*; Butyryl = CCCC(=O)*; Propyl = CCC*

T1: human IL-23R (interleukin-23 receptor) (human, UniProt Q5VWK5 24-629)
T1 sequence (looked up): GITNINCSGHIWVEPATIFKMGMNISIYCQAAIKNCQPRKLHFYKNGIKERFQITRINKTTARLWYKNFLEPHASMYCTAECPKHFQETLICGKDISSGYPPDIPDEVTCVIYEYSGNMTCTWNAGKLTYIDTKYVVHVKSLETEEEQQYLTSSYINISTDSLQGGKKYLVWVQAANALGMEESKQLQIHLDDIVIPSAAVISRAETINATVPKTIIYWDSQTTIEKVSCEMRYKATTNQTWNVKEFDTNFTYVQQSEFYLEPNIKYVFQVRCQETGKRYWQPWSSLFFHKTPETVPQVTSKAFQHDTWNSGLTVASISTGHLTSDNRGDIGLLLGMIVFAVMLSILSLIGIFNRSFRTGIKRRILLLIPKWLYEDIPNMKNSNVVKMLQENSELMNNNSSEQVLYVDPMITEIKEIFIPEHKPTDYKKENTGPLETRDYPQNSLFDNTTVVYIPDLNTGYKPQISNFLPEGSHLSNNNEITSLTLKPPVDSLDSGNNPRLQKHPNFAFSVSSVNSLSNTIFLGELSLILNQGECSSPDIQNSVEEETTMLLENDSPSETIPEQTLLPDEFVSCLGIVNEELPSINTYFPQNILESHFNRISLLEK


Target: T1, human IL-23R (interleukin-23 receptor)
Test: cell-based or functional assay

PBMC pSTAT3 IC50 (nM) | Binder
25 | Ac-[dR][Pen]QTWQ[Pen][AEF][2Nal][Thp]K(Cyclopropanecarbonyl)NF-NH2 (disulfide 2-7; SMILES CC(=O)N[C@H](CCCNC(=N)N)C(=O)N[C@@H]1C(=O)N[C@@H](CCC(N)=O)C(=O)N[C@@H]([C@@H](C)O)C(=O)N[C@@H](Cc2c[nH]c3ccccc23)C(=O)N[C@@H](CCC(N)=O)C(=O)N[C@H](C(=O)N[C@@H](Cc2ccc(OCCN)cc2)C(=O)N[C@@H](Cc2ccc3ccccc3c2)C(=O)NC2(C(=O)N[C@@H](CCCCNC(=O)C3CC3)C(=O)N[C@@H](CC(N)=O)C(=O)N[C@@H](Cc3ccccc3)C(N)=O)CCOCC2)C(C)(C)SSC1(C)C) [Compound No. 55]
29 | Ac-[dR][Pen]QTWQ[Pen][AEF][2Nal][Thp]K(Ac)NF-NH2 (disulfide 2-7; SMILES CC(=O)NCCCC[C@H](NC(=O)C1(NC(=O)[C@H](Cc2ccc3ccccc3c2)NC(=O)[C@H](Cc2ccc(OCCN)cc2)NC(=O)[C@H]2NC(=O)[C@H](CCC(N)=O)NC(=O)[C@H](Cc3c[nH]c4ccccc34)NC(=O)[C@H]([C@@H](C)O)NC(=O)[C@H](CCC(N)=O)NC(=O)[C@@H](NC(=O)[C@@H](CCCNC(=N)N)NC(C)=O)C(C)(C)SSC2(C)C)CCOCC1)C(=O)N[C@@H](CC(N)=O)C(=O)N[C@@H](Cc1ccccc1)C(N)=O) [Compound No. 53]
16 | Ac-[dR][Pen]QTWQ[Pen][AEF][2Nal][Thp]K(Butyryl)N[Thp]-NH2 (disulfide 2-7; SMILES CCCC(=O)NCCCC[C@H](NC(=O)C1(NC(=O)[C@H](Cc2ccc3ccccc3c2)NC(=O)[C@H](Cc2ccc(OCCN)cc2)NC(=O)[C@H]2NC(=O)[C@H](CCC(N)=O)NC(=O)[C@H](Cc3c[nH]c4ccccc34)NC(=O)[C@H]([C@@H](C)O)NC(=O)[C@H](CCC(N)=O)NC(=O)[C@@H](NC(=O)[C@@H](CCCNC(=N)N)NC(C)=O)C(C)(C)SSC2(C)C)CCOCC1)C(=O)N[C@@H](CC(N)=O)C(=O)NC1(C(N)=O)CCOCC1) [Compound No. 52]
35 | Ac-[dR][Pen]QTWQ[Pen][AEF][2Nal][Thp]K(Butyryl)NF-NH2 (disulfide 2-7; SMILES CCCC(=O)NCCCC[C@H](NC(=O)C1(NC(=O)[C@H](Cc2ccc3ccccc3c2)NC(=O)[C@H](Cc2ccc(OCCN)cc2)NC(=O)[C@H]2NC(=O)[C@H](CCC(N)=O)NC(=O)[C@H](Cc3c[nH]c4ccccc34)NC(=O)[C@H]([C@@H](C)O)NC(=O)[C@H](CCC(N)=O)NC(=O)[C@@H](NC(=O)[C@@H](CCCNC(=N)N)NC(C)=O)C(C)(C)SSC2(C)C)CCOCC1)C(=O)N[C@@H](CC(N)=O)C(=O)N[C@@H](Cc1ccccc1)C(N)=O) [Compound No. 58]
4.9 | Ac-[dR][Pen]QTWQ[Pen][AEF][2Nal][Thp]K(Ac)N[Thp]-NH2 (disulfide 2-7; SMILES CC(=O)NCCCC[C@H](NC(=O)C1(NC(=O)[C@H](Cc2ccc3ccccc3c2)NC(=O)[C@H](Cc2ccc(OCCN)cc2)NC(=O)[C@H]2NC(=O)[C@H](CCC(N)=O)NC(=O)[C@H](Cc3c[nH]c4ccccc34)NC(=O)[C@H]([C@@H](C)O)NC(=O)[C@H](CCC(N)=O)NC(=O)[C@@H](NC(=O)[C@@H](CCCNC(=N)N)NC(C)=O)C(C)(C)SSC2(C)C)CCOCC1)C(=O)N[C@@H](CC(N)=O)C(=O)NC1(C(N)=O)CCOCC1) [Compound No. 56]
18 | Ac-[dR][Pen]QTWQ[Pen][AEF][2Nal][Thp]K(Propionyl)N[Thp]-NH2 (disulfide 2-7; SMILES CCC(=O)NCCCC[C@H](NC(=O)C1(NC(=O)[C@H](Cc2ccc3ccccc3c2)NC(=O)[C@H](Cc2ccc(OCCN)cc2)NC(=O)[C@H]2NC(=O)[C@H](CCC(N)=O)NC(=O)[C@H](Cc3c[nH]c4ccccc34)NC(=O)[C@H]([C@@H](C)O)NC(=O)[C@H](CCC(N)=O)NC(=O)[C@@H](NC(=O)[C@@H](CCCNC(=N)N)NC(C)=O)C(C)(C)SSC2(C)C)CCOCC1)C(=O)N[C@@H](CC(N)=O)C(=O)NC1(C(N)=O)CCOCC1) [Compound No. 57]
47 | Ac-[dR][Pen]QTWQ[Pen][AEF][2Nal][Thp]K(Propionyl)NF-NH2 (disulfide 2-7; SMILES CCC(=O)NCCCC[C@H](NC(=O)C1(NC(=O)[C@H](Cc2ccc3ccccc3c2)NC(=O)[C@H](Cc2ccc(OCCN)cc2)NC(=O)[C@H]2NC(=O)[C@H](CCC(N)=O)NC(=O)[C@H](Cc3c[nH]c4ccccc34)NC(=O)[C@H]([C@@H](C)O)NC(=O)[C@H](CCC(N)=O)NC(=O)[C@@H](NC(=O)[C@@H](CCCNC(=N)N)NC(C)=O)C(C)(C)SSC2(C)C)CCOCC1)C(=O)N[C@@H](CC(N)=O)C(=O)N[C@@H](Cc1ccccc1)C(N)=O) [Compound No. 54]
67 | Ac-[dR][Pen]QTWQ[Pen][AEF][2Nal][Thp]K(Hexanoyl)NF-NH2 (disulfide 2-7; SMILES CCCCCC(=O)NCCCC[C@H](NC(=O)C1(NC(=O)[C@H](Cc2ccc3ccccc3c2)NC(=O)[C@H](Cc2ccc(OCCN)cc2)NC(=O)[C@H]2NC(=O)[C@H](CCC(N)=O)NC(=O)[C@H](Cc3c[nH]c4ccccc34)NC(=O)[C@H]([C@@H](C)O)NC(=O)[C@H](CCC(N)=O)NC(=O)[C@@H](NC(=O)[C@@H](CCCNC(=N)N)NC(C)=O)C(C)(C)SSC2(C)C)CCOCC1)C(=O)N[C@@H](CC(N)=O)C(=O)N[C@@H](Cc1ccccc1)C(N)=O) [Compound No. 59]

Second part, the binder before the results:

Binder | PBMC pSTAT3 IC50 (nM)
Propyl-[dR][Abu]QTWQ[αMeC][AEF][2Nal][Thp]ENF-NH2 (thioether 2-7) [Compound No. 48] | 7.2
Ac-[dR][Abu]QTWQC[AEF][2Nal][Thp][αMeE]NF[Aib][αMeK]-NH2 (thioether 2-7) [Compound No. 43] | 8.2
Ac-[dR][Abu]QTWQC[AEF][2Nal][Thp][Aib]NF-NH2 (thioether 2-7) [Compound No. 49] | 18
Ac-[dR][Abu]QTWQC[Phe(3,4-diOMe)][2Nal][Thp][αMeE]N[αMeF]-NH2 (thioether 2-7) [Compound No. 41] | 2500
Ac-[dR]CQTWQ[Pen][AEF][2Nal][Ac6c][αMeE]N[αMeF]-NH2 (disulfide 2-7; SMILES CC(=O)N[C@H](CCCNC(=N)N)C(=O)N[C@H]1CSSC(C)(C)[C@@H](C(=O)N[C@@H](Cc2ccc(OCCN)cc2)C(=O)N[C@@H](Cc2ccc3ccccc3c2)C(=O)NC2(C(=O)N[C@@](C)(CCC(=O)O)C(=O)N[C@@H](CC(N)=O)C(=O)N[C@@](C)(Cc3ccccc3)C(N)=O)CCCCC2)NC(=O)[C@H](CCC(N)=O)NC(=O)[C@H](Cc2c[nH]c3ccccc23)NC(=O)[C@H]([C@@H](C)O)NC(=O)[C@H](CCC(N)=O)NC1=O) [Compound No. 40] | 220
Ac-[dR][Pen]QTWQ[Pen][AEF][2Nal][Thp]K(Cyclopropanecarbonyl)N[Thp]-NH2 (disulfide 2-7; SMILES CC(=O)N[C@H](CCCNC(=N)N)C(=O)N[C@@H]1C(=O)N[C@@H](CCC(N)=O)C(=O)N[C@@H]([C@@H](C)O)C(=O)N[C@@H](Cc2c[nH]c3ccccc23)C(=O)N[C@@H](CCC(N)=O)C(=O)N[C@H](C(=O)N[C@@H](Cc2ccc(OCCN)cc2)C(=O)N[C@@H](Cc2ccc3ccccc3c2)C(=O)NC2(C(=O)N[C@@H](CCCCNC(=O)C3CC3)C(=O)N[C@@H](CC(N)=O)C(=O)NC3(C(N)=O)CCOCC3)CCOCC2)C(C)(C)SSC1(C)C) [Compound No. 51] | 27
Ac-[dR][Abu]QTWQC[AEF][2Nal][Ac6c]EN[Thp]-NH2 (thioether 2-7) [Compound No. 42] | 6.7
[dR][Abu]QTWQC[Phe(4-(2-(Boc)aminoethoxy))][2Nal][Thp]EN[Thp]-NH2 (thioether 2-7) [Compound No. 47] | 5.3
Ac-[dR][Abu]QTWQC[AEF][2Nal][Ac6c][αMeE]NF[Aib][αMeK]-NH2 (thioether 2-7) [Compound No. 45] | 17
Ac-[dR][Abu]QTWQC[AEF][2Nal][Thp][αMeE]N[Phe(3,5-F2)]-NH2 (thioether 2-7) [Compound No. 46] | 48
Ac-[dR][Abu]QTWQC[AEF][2Nal][Thp][Ac6c]N[αMeF]-NH2 (thioether 2-7) [Compound No. 50] | 14
Ac-[dR][Abu]QTWQC[AEF][2Nal][Thp][αMeE]N[αMeY]-NH2 (thioether 2-7) [Compound No. 44] | 9.3
